Data taken from a protein production outcome set (Wang et al. 2014).

Assay: label from the status in PepcDB records

Sequence	protein production
MADPIRIFIGSGEASRIERQVAIDSLQRMTDRPLAITAFNGTHNALEVLGEPPRPAPMSLRVKYWNATEFSLYRFLIPELCGYQGRAIYIDSDVVCLHDIGELFDTDLEGADFLAKAEAYPDRAGALWGLSVVLFDCDRCRFPLEQFIDELEAGVYDYRDLPCMGPRFLNKRPYQIGALDPRWNSFDFADRETRLIHYTDLKRQPWKRPGHPYGDLWFKAMQQALDSGILTDTEISQAIKRFNVRDDIREGNRPRWLTRQRLRSWLRQVKQQLRPVKV	failed
MADQLIEEVKQLIIDALRIEGMTPAEIDTDAPLFGEGLGLDSIDALQLVVAMEKQYGVVVPDAATGTKVFQSVRTVADFVAENRKLEHHHHHH	failed
MADRVIRADAKGVMRVEDGQAYNEAGQRLDDHALIPPEDANEDQARLNAQLAARDAAGLIVDLHNRGIDRHLWEQNEDAIGVERHNRGVDRHQPQIPAAIPLAAEPRRTLGDFNRPGMFYANRSAIVPPPYQRNDYESHLFYYITLHI	failed
MADTGEVQFMKPFISEKSSKSLEIPLGFNEYFPAPFPITVDLLDYSGRSWTVRMKKRGEKVFLTVGWENFVKDNNLEDGKYLQFIYDRDRTFYVIIYGHNMC	not failed
MADVEIMQTVQTEVKKTTKKVKKSSKRRESEVQISEVEVDATIEERGGEYTKAMDKDWHSGHFCCWQCDESLTGQRYVIRDDHPYCIKCYENVFANTCEECNKIIGIDSKDLSYKDKHWHEACFLCFKCHLSLVDKQFGAKADKIYCGNCYDAQFASRCDGCGEVFRAGTKKMEYKTRQWHENCFCCCVCKTAIGTKSFIPREQEIYCAGCYEEKFATRCIKCNKVITSGGVTYKNEPWHRECFTCTHCNITLAGQRFTSRDEKPYCAECFGELFAKRCTACVKPITGIGGTRFISFEDRHWHHDCFVCASCKASLVGRGFITDGPDILCPDCAKQKLM	failed
MADVGSLGTRLLRIVLGLCALVLVLLALYVSLGRQLVPLVAEYRQQLEDEAGKQLGIPVRIAELTGSWRGFEPLVVARDIQVGDGEQSLRLARVRLAPDLLGSLLARQVRIGSLELEGLKLTLREGEDGQWSLDGLPHSDKPSDPRKLLQFLLQTQRISLLDSQLEVAPRGSAALSLSAVGATLRSSSVGGQSLDARLQLPDGQPLALHAEGRIDSEDWPRSSARFYLSLPQSDWAQWLPAGLTQEWTIVRAKAGGDFWFDWRDGKAQRLVARLLAPQLKASYAARKPVEINDLGMNLFFDREAQGWKVRVGDLAANFGEQRWGEVELLLRRDQQNNEPHWKLQADRVDLTPLVPAIEALAPLPDAAAEWVAGLKPKGILHNLNADFWPQREVPERVSYATNLEKVGISAFHEVPAVENVSGTLTGTLAGGQLDASAQDFMLHLAKVFPEPWRYREARTRMFWSLDDRAFTLGSHLMRVEGEEGSLAGDMLIRLMRDPGAEDYMDLQVGLSDGDARFTAKYLPTQLPGMNKSLANWLKTAIRSGHVEQGYFQWQGSLNRGAAAEAHVMNLYFKVRDGELAYQPGWPALSKTVGEVFVEDSGVRVLASSGNLLNSRVSDVKVDIPLGRPGQTPHLYVDGAVDSNLKDGIKLLQEAPIPTRKIFAGWEGDGPLQGHLTLDIPLDHDEAGKTGVVVDFSTVGATLKMPSPKLDMSEVKGDFRFDLAKGLSAPAVQARVLGSEVRGRIVAEGRGDARTRLLLNGQVAVKSLSDWLGAGQRPLPVSGRLPFQLNLLLDGKDSQLQIDSDLKGAVVDLPAPFGKTAAQARPTQWRMTLDGAERRYWARYDGLASLAYAAPADKPLNGRGALRLGGDPALLPSAQGLRVRGRLAELDWDAWQATLKRYGNGDQAASSAAGLLRGADLRIDSFKGFGQELKNLTVDLARQERAWQLVLVSDLASGRLVLPDARGAPIVVDLDRLNLPKSTLPDENKVEDSDPLAAVDPRSLPAVDVKIGQVALGGQPLGAWSLKVRPGSNGVAFNDLDLDLRGLHVNGSLRWDGSPGNTRSTYQGRIEGKNLADVLKAWNFAPSATSERFRMDINGQWPGSPAYMALKRFSGSMDASLRKGQFVEVEGSAQALRVFGLLNFNAINRRLRLDFSDILGKGLSYDRVKGVLSATDGVYVTREPLKLEGPSSNLELNGTLDLAHDRIDAKLLVTLPLTNNLTLAALIVGGPAVGGAVFVVDKLLGDRVSRFASVQYSVKGPWQDPKISFDKPFEKPR	failed
MAEAANKNKPHKLIIDNRNSMSMTGVTKVISIDTDLVLLVTEQGKLKITGKNMQASTLDLDKGILELTGNFNTMVYSGEKEGALSLKSLFK	failed
MAEAKSRVGRPSGDTQNRDKLILAARNLFIERPYAQVSIREIASLAGTDPGLIRYYFGSKEKLFSTMIHETAMPVLAQLHKARRETRQESPAALLQTYYSVMSKHPHFPRLMLRIAGLDQSLPENAEVTKAFYEVVNFENIAIFQRLKDKNLLKDDVDAHCAQLSFFAMMVFPFIVPENLLERVGIELTPDFLQLLAEQNTRLLQRGLMDVKDERDE	not failed
MAEAPPVSGTFKFNTDAAEFIPQERKTSGLNCGTQRRLDSSRIGRRNYSSSPPCHLPRHIPYEDISAVHQHSYASGSKPKSPQGFFQSSNKSLKNHGLQNQPWQKARNEKHQNRNKKAQGLSEQTSDTSSLESVARSESGTNPREHSPSESEKEVVIADPRGAKPKKAAQLTYNYGRGPKAKGRLRSEWGNRMSPKSEDENTRPVAISHTDSSDASCRKPVVDPCVCRRNEQRRYPQKRPPWEVEGARPRPGRNPPKQESQRHINAGPKTNMSPIPKDNLRERPTKSACDTGNLAVVSKSSRRVNQEKTAVRRQDPQVLSPFPRGKQNHMLKNVETHTGSLIEQLTTEKYECMVCCELVQVTAPVWSCQSCFHVFHLNCIKKWARSPASHADGQSGWRCPACQNVSAHVPNTYTCFCGKVKNPEWSRNEIPHSCGEVCRKKQPGQDCPHSCNLLCHPGPCPPCPAFTTKTCECGRTRHTVRCGQPVSVHCSNACENILNCGQHHCAELCHGGQCQPCRIILNQVCYCGSTSRDVLCGTDVGKSDGFGDFSCLKICGKDLKCGSHTCSQVCHPQPCQPCPRLPHLVRYCPCGQTPLSQLLEHGSNARKTCMDPVPSCGKVCGKPLACGSSDFIHTCEKLCHEGDCGPCSRTSVISCRCSFRTKELPCTSLKSEDATFMCDKRCNKKRLCGRHKCNEICCVDKEHKCPLICGRKLRCGLHRCEEPCHRGNCQTCWQASFDELTCHCGASVIYPPVPCGTRPPECTQTCARIHECDHPVYHSCHSEEKCPPCTFLTQKWCMGKHEELTIKKLWTFKETLDF	not failed
MAEEKIKKSLLAADDSDDEYSRGDTVSDQTELSSILDKLSLEPKTEKKKLLVLSLSGLLLHRVHKKELRKKPKNRSPDASCGPNLVYKRPFAEEFMKFCLERFEVGIWSSACELVSSLNILIVTGPRECTDSGYKTLENRYKPLFFKDLSKVFKCFKGFSASNTIFIDDEPYKALRNPDNTGLFPMSYDASNIKDNLLDPEGELCSYLEGLAKSSDVQAYIKVHSFGRPMIDSSHPDWSFYSNVSKIVS	failed
MAEEKKKKLSIIVFSGTIDKLMPVGILTSGAAASGYEVNLFFTFWGLQAITKRSLNSQQPPQIDKNYEQMGPIMMQKMQEMKYPMWHQLVQQAKEIGEVKVFACSTTMEFFGIKREDLAEFVDDVVGVATFLDRAEGGTTLFI	not failed
MAEEQQPSTDDETAAKSATTKQASPKAETDQSATQPVEDQPTATPEEVAALEKKAADFEDKYLRAEAEVQNMQARFQKEQATLIKYDGQQLAKDVLPVIDNLERALAVEASDDVAAQIKKGVQMTYDHLEDALKRNHVTEIAALGQTFDPTLHQAVQSVPAEDGQTAETVVNVLQKGYQLKDRVLRPAMVVVAQ	failed
MAEGKPDEQLFQLLSGLLQQVESLTNTEEVELRSKIEALGLEVTKVPSKSAQHLNEVEIAKELDKLSAKLDDVDEMISSAIASDPQVQTLLSGTADVWMPVITAGAEERLNFTASLADDDDLSNKETTTDNTSSS	not failed
